In the supplement of paper PMC7877785:
± gives the uncertainty stated by the source.

Assay: self-splicing fitness, log relative to wild type (ln ratio); higher = more splicing; Tetrahymena group I intron in knt gene, E. coli kanamycin selection, DiMSum; sequences stand for … in CUCUCU…GGAGGGAAAAGUUAUCAGGCAUGCACCUGGUAGCUAGUCUUUAAACCAAUAGAUUGCAUCGGUUUAAAAGGCAAGACCGUCAAAUUGCGGGAAAGGGGUCAACAGCCGUUCAGUACCAAGUCUCAGGGGAAACUUUGAGAUGGCCUUGCAAAGGGUAUGGUAAUAAGCUGACGGACAUGGUCCUAACCACGCAGCCAAGUCCUAAGUCAACAGAUCUUCUGUUGAUAUGGAUGCAGUUCACAGACUAAAUGUCGGUCGGGGAAGAUGUAUUCUUCUCAUAAGAUAUAGUCGGACCUCUCCUUAAUGGGAGCUAGCGGAUGAAGUGAUGCAACACUGGAGCCGCUGGGAACUAAUUUGUAUGCGAAAGUAUAUUGAUUAGUUUUGGAGUACUCGUGGUCG
Method in brief: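 The eight P1ex-region nucleotides of an intron in the knt kanamycin-resistance gene on pET-22b(+) were all randomised and the library put into E. coli BL21(DE3). Six replicate transformations were grown overnight at 37°C or 30°C on LB agar with or without 25 μg/mL kanamycin, together with 100 μg/mL carbenicillin, 50 μM IPTG and 0.2% rhamnose. Colonies were pooled and amplicon-sequenced on an Illumina HiSeq 2500. Fitness from DiMSum is the error-weighted combination of wild-type-normalised replicate fold changes, kanamycin over none.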

Sequence | self-splicing fitness (ln) (30 °C) | self-splicing fitness (ln) (37 °C)
AGUGAGCAAUAUUACGCCGC | -1.96 ± 0.25 | -0.183 ± 0.22
AGUGAGCAAUAUUACGCGAU | -3.96 ± 0.42 | -1.8 ± 0.24
AGUGAGCAAUAUUACGCGUA | -1.97 ± 0.27 | -1.48 ± 0.17
AGUGAGCAAUAUUACGCGUU | -3.04 ± 0.19 | -2.18 ± 0.18
AGUGAGCAAUAUUACGCUGG | – | -2.84 ± 0.41
AGUGAGCAAUAUUACGGCAG | -3.28 ± 0.28 | -1.43 ± 0.24
AGUGAGCAAUAUUACGGCCC | -1.16 ± 0.39 | –
AGUGAGCAAUAUUACGGGCC | -3.49 ± 0.4 | -2.02 ± 0.34
AGUGAGCAAUAUUACGGGGG | -3.05 ± 0.31 | -2.87 ± 0.3
AGUGAGCAAUAUUACGGGUG | -3.71 ± 0.17 | -2.79 ± 0.21
AGUGAGCAAUAUUACGGUUU | -2.09 ± 0.14 | -2.28 ± 0.33
AGUGAGCAAUAUUACGUACU | -1.71 ± 0.13 | -1.15 ± 0.17
AGUGAGCAAUAUUACGUCAG | -3 ± 0.21 | -2.56 ± 0.23
AGUGAGCAAUAUUACGUGGG | -3.7 ± 0.29 | -2.51 ± 0.23
AGUGAGCAAUAUUACGUUCC | -4 ± 0.34 | -1.47 ± 0.16
AGUUAGCAAUAUUACGAAAG | -4.09 ± 0.21 | -2.82 ± 0.24
AGUUAGCAAUAUUACGAACU | -1.59 ± 0.23 | -1.89 ± 0.28
AGUUAGCAAUAUUACGACUU | -1.32 ± 0.078 | -0.587 ± 0.12
AGUUAGCAAUAUUACGAGUU | -1.5 ± 0.086 | -0.514 ± 0.11

Sequence | self-splicing fitness (ln) (30 °C) | self-splicing fitness (ln) (37 °C)
AGUUAGCAAUAUUACGAUCG | -0.446 ± 0.1 | -0.0837 ± 0.12
AGUUAGCAAUAUUACGAUCU | -0.0546 ± 0.1 | 0.11 ± 0.13
AGUUAGCAAUAUUACGCAUA | -1.15 ± 0.19 | -0.764 ± 0.29
AGUUAGCAAUAUUACGCGAC | -2.88 ± 0.45 | -0.848 ± 0.26
AGUUAGCAAUAUUACGCGCG | -0.159 ± 0.12 | -0.151 ± 0.15
AGUUAGCAAUAUUACGCUCU | -1.37 ± 0.45 | –
AGUUAGCAAUAUUACGCUGA | -3.13 ± 0.3 | -2.05 ± 0.27
AGUUAGCAAUAUUACGGUUU | -0.98 ± 0.071 | -0.317 ± 0.1
AGUUAGCAAUAUUACGUCUU | -0.214 ± 0.096 | 0.541 ± 0.13
AGUUAGCAAUAUUACGUGCC | -0.977 ± 0.12 | -0.145 ± 0.16
AGUUAGCAAUAUUACGUUCU | -0.403 ± 0.1 | -0.302 ± 0.11
AGUUAGCAAUAUUACGUUGA | -2.03 ± 0.31 | -2.02 ± 0.39
AUAAAGCAAUAUUACGACGC | 0.18 ± 0.093 | 0.349 ± 0.14
AUAAAGCAAUAUUACGACUC | -0.219 ± 0.075 | 0.324 ± 0.088
AUAAAGCAAUAUUACGAUAC | -1.39 ± 0.12 | -0.441 ± 0.14
AUAAAGCAAUAUUACGCAGC | -3.55 ± 0.4 | -1.04 ± 0.28
AUAAAGCAAUAUUACGCCGA | -1.06 ± 0.077 | 0.123 ± 0.11
AUAAAGCAAUAUUACGCCGC | -2.8 ± 0.18 | -2.05 ± 0.27
AUAAAGCAAUAUUACGCCGG | -0.516 ± 0.13 | -0.807 ± 0.17
